The term Kd denotes a measure of binding affinity in units of concentration. Low values mean tighter binding, high ones weaker binding.

This experiment concerns the target KIR3DL3 protein (antigen of the affinity determination of Table 3) (human) (UniProt Q8N743). The experiment is described as follows: method and antigen format not stated.

KIR3DL3 protein (antigen of the affinity determination of Table 3) (human), sequence (Q8N743 other isoform, or with tags, fused parts or gaps limits assumed): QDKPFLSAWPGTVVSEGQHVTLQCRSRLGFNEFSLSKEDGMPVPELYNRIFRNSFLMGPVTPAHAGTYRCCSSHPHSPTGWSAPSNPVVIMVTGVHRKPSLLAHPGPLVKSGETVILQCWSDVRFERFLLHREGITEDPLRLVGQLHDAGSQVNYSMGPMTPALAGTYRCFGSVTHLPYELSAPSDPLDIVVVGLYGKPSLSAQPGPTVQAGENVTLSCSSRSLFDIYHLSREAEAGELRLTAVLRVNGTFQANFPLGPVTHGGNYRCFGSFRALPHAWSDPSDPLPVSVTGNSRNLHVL

B1: monoclonal 26E2 (antibody, part only; not given: VH framework 1 and CDR1, V domains shown, part only)
VH, part: RWVKQTPGQGLEWIGYIYPGDGGTNCNQKFQGKATLTADTSSSTAYMQISSLTSEDSAVYFCARSGNYGNYEGFAFWGQGTLVTVSA
VL: DIKMTQSPSSMYASLGERVTITCKASQDTNSYLSWFQQKPGKSPKTLIYRANRLVDGVPSRFSGSGSGQDYSLTISRLEYEDMGIYYCLQYNEFPYTFGGGTKLEIKRADA
The molecule B1 returned an equilibrium dissociation constant (Kd) of 0.26 nM.

The record behind these values is patent publication US20230040568A1.
